Source: patent US8022177B2, “Peptides and calcium regulation in mammalian cells” (The Board of Trustees of the University of Illinois, priority 2005, dated 2011)

B1: γ4: rat calcium channel γ4 subunit (AF361341), SEQ ID NO:47 (protein, listed as Rattus norvegicus)
chain: MVRCDRGLQMLLTTAGAFAAFSLMAIAIGTDYWLYSSAHICNGTNLTMDDGPPPRRARGDLTHSGLWRVCCIEGIYKGHCFRINHFPEDNDYDHDSSEYLLRIVRASSVFPILSTILLLLGGLCIGAGRIYSRKNNIVLSAGILFVAAGLSNIIGIIVYISSNTGDPSDKRDEDKKNHYNYGWSFYFGALSFIVAETVGVLAVNIYIEKNKELRFKTKREFLKASSSSPYSRMPSYRYRRRRSRSSSRSTEASPSRDASPVGLKITGAIPMGELSMYTLSREPLKVTTAASYSPDQDAGFLQMHDFFQQDLKEGFHVSMLNRRTTPV
B2: γ6L: rat calcium channel γ6 subunit, long isoform (AF361343), SEQ ID NO:48 (protein, listed as Rattus norvegicus)
chain: MMWSNFFMQEEDRRRTAVGRRRAQEQQNLGLTPEREGKIKLGLLVAIVGATLAVLAVGTEFWVELNTYKTNGSAVCEAAHLGLWKVCIKRLWQADVPAGRETCGPAELPGEANCTYFKFFTTGENAHIFQRTTKKEVNLAAAVIAVLGLTAMALGCLCVIMVLSKGAEFLLRLGAVCFGLSGLLLFVSLEVFRHSVRALLQGVNPETPPAPRLAYEYSWSLGCGVGAGLILLLGGVCFLLLTLPSWPWRSLCPKRGGPTA

Columns and labels:
Cav3.1 [1] = target: T1, Cav3.1 (Homo sapiens, UniProt O43497); assay: Co-immunoprecipitation of Flag-tagged γ subunits with Cav3.1; type: binding
T1 construct: expressed in transfected cells; host or cells: HEK-293, stably transfected
T1 sequence (O43497 whole entry): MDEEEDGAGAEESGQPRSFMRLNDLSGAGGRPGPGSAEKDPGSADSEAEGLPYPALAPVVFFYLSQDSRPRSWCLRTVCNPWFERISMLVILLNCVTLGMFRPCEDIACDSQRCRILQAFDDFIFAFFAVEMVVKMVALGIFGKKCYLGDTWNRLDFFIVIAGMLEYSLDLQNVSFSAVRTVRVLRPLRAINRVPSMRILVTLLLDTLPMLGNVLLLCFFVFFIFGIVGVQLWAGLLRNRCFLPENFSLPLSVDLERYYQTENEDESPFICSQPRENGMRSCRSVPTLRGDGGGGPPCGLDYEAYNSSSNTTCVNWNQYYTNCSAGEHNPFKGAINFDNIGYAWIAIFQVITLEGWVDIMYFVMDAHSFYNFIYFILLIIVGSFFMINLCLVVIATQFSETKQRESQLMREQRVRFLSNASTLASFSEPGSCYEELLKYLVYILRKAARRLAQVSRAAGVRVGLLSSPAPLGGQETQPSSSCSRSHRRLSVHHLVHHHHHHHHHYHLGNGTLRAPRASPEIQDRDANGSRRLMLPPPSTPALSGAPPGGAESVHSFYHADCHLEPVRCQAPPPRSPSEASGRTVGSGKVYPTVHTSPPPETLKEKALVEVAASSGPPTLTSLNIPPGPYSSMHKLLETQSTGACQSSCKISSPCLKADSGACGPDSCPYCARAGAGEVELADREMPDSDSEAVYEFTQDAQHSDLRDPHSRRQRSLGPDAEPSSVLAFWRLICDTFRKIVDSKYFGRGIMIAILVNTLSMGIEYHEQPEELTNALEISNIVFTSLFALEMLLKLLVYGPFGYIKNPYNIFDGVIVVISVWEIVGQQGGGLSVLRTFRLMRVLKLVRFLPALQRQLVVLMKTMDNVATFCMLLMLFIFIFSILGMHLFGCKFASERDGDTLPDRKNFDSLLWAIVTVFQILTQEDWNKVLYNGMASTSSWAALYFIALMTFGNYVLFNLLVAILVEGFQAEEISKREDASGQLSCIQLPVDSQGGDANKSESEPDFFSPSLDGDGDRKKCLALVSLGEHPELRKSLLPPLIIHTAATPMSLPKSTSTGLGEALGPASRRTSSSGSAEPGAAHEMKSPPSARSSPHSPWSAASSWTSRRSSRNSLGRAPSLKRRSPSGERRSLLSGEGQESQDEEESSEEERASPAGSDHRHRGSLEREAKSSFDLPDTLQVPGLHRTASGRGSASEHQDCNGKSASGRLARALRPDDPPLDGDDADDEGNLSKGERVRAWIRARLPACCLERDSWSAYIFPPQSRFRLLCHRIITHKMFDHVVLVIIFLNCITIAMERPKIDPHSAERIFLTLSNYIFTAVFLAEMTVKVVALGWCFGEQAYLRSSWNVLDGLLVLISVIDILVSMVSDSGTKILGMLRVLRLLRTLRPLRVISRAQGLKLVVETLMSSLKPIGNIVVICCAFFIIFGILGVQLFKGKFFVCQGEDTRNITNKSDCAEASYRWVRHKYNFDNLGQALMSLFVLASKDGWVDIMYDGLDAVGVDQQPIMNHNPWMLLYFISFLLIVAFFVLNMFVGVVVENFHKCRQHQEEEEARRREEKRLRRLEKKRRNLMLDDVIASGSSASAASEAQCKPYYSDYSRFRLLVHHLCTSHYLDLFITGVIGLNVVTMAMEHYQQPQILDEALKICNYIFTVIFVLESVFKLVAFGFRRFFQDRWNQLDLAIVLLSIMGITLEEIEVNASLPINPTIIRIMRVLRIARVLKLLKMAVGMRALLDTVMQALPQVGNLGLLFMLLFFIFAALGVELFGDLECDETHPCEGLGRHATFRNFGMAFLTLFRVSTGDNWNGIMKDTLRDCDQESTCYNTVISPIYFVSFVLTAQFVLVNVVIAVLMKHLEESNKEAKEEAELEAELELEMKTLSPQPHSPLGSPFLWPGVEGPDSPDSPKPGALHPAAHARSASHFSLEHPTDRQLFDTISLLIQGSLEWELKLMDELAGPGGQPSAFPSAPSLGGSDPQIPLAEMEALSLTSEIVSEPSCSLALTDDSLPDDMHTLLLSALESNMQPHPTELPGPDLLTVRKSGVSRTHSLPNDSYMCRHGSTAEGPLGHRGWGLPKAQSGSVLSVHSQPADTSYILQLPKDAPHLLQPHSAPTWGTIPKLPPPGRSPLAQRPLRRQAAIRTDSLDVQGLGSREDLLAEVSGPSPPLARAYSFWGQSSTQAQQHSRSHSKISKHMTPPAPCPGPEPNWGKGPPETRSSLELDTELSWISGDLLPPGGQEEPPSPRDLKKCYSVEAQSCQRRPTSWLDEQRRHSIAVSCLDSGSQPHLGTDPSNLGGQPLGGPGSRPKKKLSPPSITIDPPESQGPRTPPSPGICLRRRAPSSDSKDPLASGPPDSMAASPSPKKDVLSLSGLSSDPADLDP
Method: Immunoprecipitation and Immunodetection. HEK-293 cells stably transfected with Cav3.1 were grown in T25 tissue culture flasks and transiently transfected when 70-90% confluent. Five μg of each plasmid expression vector was transfected per T25 flask using 15 μL Lipofectamine 2000 reagent (Invitrogen, Carlsbad, Calif.) as per the manufacturer's recommendations. Cells were processed for immunoprecipitation assay and immunoblot analysis 24 hr post-transfection. Cells were washed and scraped from flasks with ice cold PBS (without Ca^2+ or Mg^+) and centrifuged for 5 min at 500×g at 4° C. Cell pellets were resuspended in 1.0 mL lysis buffer (50 mM Tris HCl, 150 mM NaCl, 1 mM EDTA, 2% Triton X-100, and 1:100 Protease Inhibitor Cocktail Set III (EMD Biosciences, San Diego, Calif.)) and incubated with constant mixing for 1 hr at 4° C. Samples were cleared by centrifugation at 10,000×g for 2 min at 4° C. Equal amounts of cell lysate were added to a 75 μL bed volume of anti-FLAG M2 affinity gel (Sigma, St. Louis, Mo.) that was washed three times with lysis buffer. Samples were immunoprecipitated with constant mixing overnight at 4° C. Beads were washed three times with lysis buffer and incubated in sample buffer containing 1% SDS, 50 mM DTT, and 10% glycerol for 30 minutes at 25° C. […]

Cav3.1 [2] = target: T1, Cav3.1; assay: Whole-cell patch clamp of Cav3.1 LVA current in HEK/Cav3.1 cells transfected with γ6/γ4 chimeric and truncated constructs (Example 2); type: cell-based; conditions: Table 1 (Example 2)
Method: Transfection—HEK-293 cell lines stably transfected with Cav3.1 were transiently transfected with vectors containing γ subunit cDNAs using Lipofectamine 2000 reagent (Invitrogen) as per the manufacturer's recommendations. HEK-293 cells were grown to 70-80% confluence before transfection.
Electrophysiology—Whole-cell calcium currents were recorded using an Axopatch-1D patch clamp system and Clampex 8.0 software. Pipettes were fabricated from borosilicate glass and had typical resistances of 2-4 MΩ. The pipette solution contained (in mM): 130 NaCl, 10 EGTA, 2 MgCl2, 1 CaCl2, 10 HEPES, 3 Tris-ATP, and 0.3 Tris-GTP, adjusted to pH 7.4 with NaOH and 280 mOsm with sucrose. The bath solution contained (in mM): 137 NaCl, 1 KCl, 1 MgCl2, 0.33 NaH2PO4, 2 CaCl2, 10 HEPES, and 30 μM TTX, adjusted to pH 7.4 with NaOH and 280 mOsm with sucrose.
Recordings from HEK-293 cells were made 48-96 hours post-transfection, at which time expression, as measured by GFP fluorescence, peaked. All HEK-293 data is from current records in which pipette and whole-cell capacitance were about 100% compensated and series resistance was compensated to >80%. Series resistance values were typically <10 MΩ (megaohms), and no records were used in which the voltage error (as defined by Ver=Imax×Ra) was greater than 5 mV. The holding potential of all protocols used for HEK-293 cells was −100 mV except for steady-state inactivation protocols where the holding potential was −120 mV. Current-voltage relationships for all HEK-293 cells were measured using 50 ms test depolarizations. Peak current amplitudes for activation curves were determined by fitting tail currents, elicited by stepping membrane voltage from varying test potentials to −60 mV, with the Boltzman equation. Test potential steps for activation protocols were of varied durations, corresponding to the time to peak of the elicited current. Inactivation curves were determined by fitting peak amplitudes of currents, observed in a test pulse to −20 mV, following 500 ms steps to varying potentials, with the Boltzman equation. Time to peak was determined using the current-voltage protocol described above. Inactivation time constants were determined by fitting the decay phase of currents to an exponential equation and deactivation time constants were determined by fitting the decay phase of tail currents to an exponential equation. […] When a double exponential equation was used to fit Cav3.1 tail currents, the magnitude of the fast component was about 10 fold that of the slow component. Currents were recorded at 40 kHz and on-line filtered at 5. In some cases currents were off-line filtered at 1 kHz to further reduce noise. Current-voltage relationships and tail currents were recorded from HEK cells using an on-line P/−4 subtraction procedure. The average membrane capacitance of untransfected HEK-293 cells in pilot experiments was 12.5+/−0.4 pF (n=8).
Statistical Analysis—All data are reported as mean±SEM and tested for significance by one-way ANOVA. A value of P<0.05 was considered significant and when significant p-values were encountered groups were compared using the Tukey post-hoc test.

| Molecule | Interaction with Cav3.1 relative to γ6 (Cav3.1 [1]; Cav3.1 in anti-Flag immunoprecipitates, FIG. 36B) | Activation V 0.5 (Cav3.1 [2]) | Activation k (Cav3.1 [2]) | Deactivation tau @ −100 mV, Fast (Cav3.1 [2]) | Inactivation V 0.5 (Cav3.1 [2]) | Inactivation k (Cav3.1 [2]) | Inactivation tau @−20 mV (Cav3.1 [2]) | Time to peak @ −20 mV (Cav3.1 [2]) | V peak (Cav3.1 [2]) | Co-immunoprecipitation with Cav3.1 (Cav3.1 [1]; FIG. 36A) |
| --- | --- | --- | --- | --- | --- | --- | --- | --- | --- | --- |
| B1 | approximately 10 % of γ6 | −37.3 ± 0.9 (n = 8) mV | 11.8 ± 0.5 (n = 8) | 1.84 ± 0.28 (n = 8) ms | −79.2 ± 1.5 (n = 7) mV | 6.1 ± 0.2 (n = 7) | 15.8 ± 0.7 (n = 7) ms | 5.2 ± 0.5 (n = 9) ms | −30.6 ± 1.5 (n = 9) mV | – |
| B2 | – | −36.3 ± 6.2 (n = 4) mV | 12.7 ± 1.5 (n = 4) | 1.54 ± 0.48 (n = 4) ms | −78.5 ± 2.6 (n = 6) mV | 5.4 ± 0.3 (n = 6) | 18.6 ± 1.1 (n = 6) ms | 6.0 ± 0.8 (n = 5) ms | −31.1 ± 3.1 (n = 9) mV | robust coimmunoprecipittion |
